Reference: PMC9974302, “Bacterial division ring stabilizing ZapA versus destabilizing SlmA modulate FtsZ switching between biomolecular condensates and polymers” (Open Biology, 2023)

B1: FtsZ (natural protein, E. coli, UniProt P0A9A6 1-383, looked up)
chain: MFEPMELTNDAVIKVIGVGGGGGNAVEHMVRERIEGVEFFAVNTDAQALRKTAVGQTIQIGSGITKGLGAGANPEVGRNAADEDRDALRAALEGADMVFIAAGMGGGTGTGAAPVVAEVAKDLGILTVAVVTKPFNFEGKKRMAFAEQGITELSKHVDSLITIPNDKLLKVLGRGISLLDAFGAANDVLKGAVQGIAELITRPGLMNVDFADVRTVMSEMGYAMMGSGVASGEDRAEEAAEMAISSPLLEDIDLSGARGVLVNITAGFDLRLDEFETVGNTIRAFASDNATVVIGTSLDPDMNDELRVTVVATGIGMDKRPEITLVTNKQVQQPVMDRYQQHGMAPLTQEQKPVAKVVNDNAPQTAKEPDYLDIPAFLRKQAD
modifications: Alexa Fluor 488 or Alexa Fluor 647 on amino groups, only in the tracer fraction (below 1 mole of dye per mole of protein)
notes: Cell division GTPase FtsZ, E. coli; The methods name no species for the construct; Oligomers without GTP (GDP form), polymers with GTP; also called FtsZ-Alexa 647; source: purified as described in [6,22,25]

Key:
[1] = biological target: the molecule itself; assay: fluorescence polarisation; anisotropy with time after addition of GTP; 5 uM FtsZ with 50 nM FtsZ-Alexa 488 as tracer; solution buffer with 300 mM KCl; 27 C
FtsZ = biological target: B1; assay: fluorescence correlation spectroscopy; FtsZ polymers: 10 uM FtsZ, 2 mM GTP and enzymatic GTP regeneration system; 10 nM labelled tracer; solution buffer; details: both partners purified
[2] = biological target: the molecule itself; assay: fluorescence correlation spectroscopy; no GTP (FtsZ oligomers); solution buffer with 100 mM KCl; 10 nM ZapA-Alexa 488 or SBS-Alexa 488 as tracer; 5 uM ZapA, 5 uM SlmA, 1 uM SBS, 50 or 20 uM FtsZ

Row | binding result (FtsZ) | Binder | binding result [1] | stoichiometry N [2]
1 | – | B1 | binds | –
2 | binds | ZapA (natural protein, E. coli, UniProt P0ADS2 1-109, looked up, Alexa Fluor 488 on amino groups, only in the tracer fraction (below 1 mole of dye per mole of protein), Cell division protein ZapA, E. coli; Dimer-tetramer equilibrium that depends on salt; source: BL21(DE3) strain carrying plasmid pEJR029b, purified) MSAQPVDIQIFGRSLRVNCPPDQRDALNQAADDLNQRLQDLKERTRVTNTEQLVFIAALNISYELAQEKAKTRDYAASMEQRIRMLQQTIEQALLEQGRITEKTNQNFE | – | 4
